# B1: Azoarcus group I ribozyme (parent)
# chain: GUGCCUUGCGCCGGGAAACCACGCAAGGGAUGGUGUCAAAUUCGGCGAAACCUAAGCGCCCGCCCGGGCGUAUGGCAACGCCGAGCCAAGCUUCGGCGCCUGCGCCGAUGAAGGUGUAGAGACUAGACGGCACCCACCUAAGGCAAACGCUAUGGUGAAGGCAUAGUCCAGGGAGUGGCGAAAGUCACACAAACCGG
# Variants of: B1
# Assay: reverse-splicing fitness (ratio to wild type); higher = more active; in vitro selection; Mg2+ level not given
# Summary of the method: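 An in vitro group I ribozyme library with randomized positions was T7-transcribed and gel-purified. In triplicate, 10 pmol RNA in EPPS pH 7.5 was reacted with 50 pmoles of a 30-nt RNA substrate for 1 h at 37 °C across several added MgCl2 levels (1–48 mM), then stopped with EDTA. Products were reverse transcribed from a substrate-complementary primer, PCR-amplified and sequenced (HiSeq 4000). Fitness is a variant's read proportion after selection over that before, normalised to wild type.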
row,Variant,reverse-splicing fitness
1,GUGCCUUGCGCCGGGAAACCACGCAAGGGAUGGUGUCAAAUUCGGCGAAACCUAAGCGCCCGCCCGGGCGUAUGGCAACGCAGAGCCAAGCUUCGGCGCCUGCGCCGAUGAAGGUGUAGCGACUAGACGGCACCCACCUAAGGCAAACGUUAUGGUGAAGGCAUAGUCUAGGGAGCGGCGAAAGUCACACAAACCGG [C82A A120C C150U C169U U176C],0.0147
2,GUGCCUUGCGCCGGGAAACCACGCAAGGGAUGGUGUCAAAUUCGGCGAAACCUAAGCGCCCGCCCGGGCGUAUGGCAACGCAGAGCCAAGCUUCGGCGCCUGCGCCGAUGAAGGUGUAGCGACUAGACGGCACCCACCUAAGGCAAACGUUAUGGUGAAGGCAUAGUCUAGGGAGGGGCGAAAGUCACACAAACCGG [C82A A120C C150U C169U U176G],0.00589
3,GUGCCUUGCGCCGGGAAACCACGCAAGGGAUGGUGUCAAAUUCGGCGAAACCUAAGCGCCCGCCCGGGCGUAUGGCAACGCAGAGCCAAGCUUCGGCGCCUGCGCCGAUGAAGGUGUAGCGACUAGACGGCACCCACCUAAGGCAAACGUUAUGGUGAAGGCAUAGUCUAGGGAGAGGCGAAAGUCACACAAACCGG [C82A A120C C150U C169U U176A],0.0167
4,GUGCCUUGCGCCGGGAAACCACGCAAGGGAUGGUGUCAAAUUCGGCGAAACCUAAGCGCCCGCCCGGGCGUAUGGCAACGCAGAGCCAAGCUUCGGCGCCUGCGCCGAUGAAGGUGUAGCGACUAGACGGCACCCACCUAAGGCAAACGUUAUGGUGAAGGCAUAGUCGAGGGAGUGGCGAAAGUCACACAAACCGG [C82A A120C C150U C169G],0.00925
5,GUGCCUUGCGCCGGGAAACCACGCAAGGGAUGGUGUCAAAUUCGGCGAAACCUAAGCGCCCGCCCGGGCGUAUGGCAACGCAGAGCCAAGCUUCGGCGCCUGCGCCGAUGAAGGUGUAGCGACUAGACGGCACCCACCUAAGGCAAACGUUAUGGUGAAGGCAUAGUCUAGGGAGUGGCGAAAGUCACACAAACCGG [C82A A120C C150U C169U],0.0173
6,GUGCCUUGCGCCGGGAAACCACGCAAGGGAUGGUGUCAAAUUCGGCGAAACCUAAGCGCCCGCCCGGGCGUAUGGCAACGCAGAGCCAAGCUUCGGCGCCUGCGCCGAUGAAGGUGUAGCGACUAGACGGCACCCACCUAAGGCAAACGUUAUGGUGAAGGCAUAGUCAAGGGAGUGGCGAAAGUCACACAAACCGG [C82A A120C C150U C169A],0.0105
7,GUGCCUUGCGCCGGGAAACCACGCAAGGGAUGGUGUCAAAUUCGGCGAAACCUAAGCGCCCGCCCGGGCGUAUGGCAACGCAGAGCCAAGCUUCGGCGCCUGCGCCGAUGAAGGUGUAGCGACUAGACGGCACCCACCUAAGGCAAACGCUAUGGUGAAGGCAUAGUCGAGGGAGAGGCGAAAGUCACACAAACCGG [C82A A120C C169G U176A],0.0193
8,GUGCCUUGCGCCGGGAAACCACGCAAGGGAUGGUGUCAAAUUCGGCGAAACCUAAGCGCCCGCCCGGGCGUAUGGCAACGCAGAGCCAAGCUUCGGCGCCUGCGCCGAUGAAGGUGUAGCGACUAGACGGCACCCACCUAAGGCAAACGCUAUGGUGAAGGCAUAGUCGAGGGAGGGGCGAAAGUCACACAAACCGG [C82A A120C C169G U176G],0.00508
9,GUGCCUUGCGCCGGGAAACCACGCAAGGGAUGGUGUCAAAUUCGGCGAAACCUAAGCGCCCGCCCGGGCGUAUGGCAACGCAGAGCCAAGCUUCGGCGCCUGCGCCGAUGAAGGUGUAGCGACUAGACGGCACCCACCUAAGGCAAACGCUAUGGUGAAGGCAUAGUCGAGGGAGCGGCGAAAGUCACACAAACCGG [C82A A120C C169G U176C],0.0259
10,GUGCCUUGCGCCGGGAAACCACGCAAGGGAUGGUGUCAAAUUCGGCGAAACCUAAGCGCCCGCCCGGGCGUAUGGCAACGCAGAGCCAAGCUUCGGCGCCUGCGCCGAUGAAGGUGUAGCGACUAGACGGCACCCACCUAAGGCAAACGCUAUGGUGAAGGCAUAGUCGAGGGAGUGGCGAAAGUCACACAAACCGG [C82A A120C C169G],0.00961
11,GUGCCUUGCGCCGGGAAACCACGCAAGGGAUGGUGUCAAAUUCGGCGAAACCUAAGCGCCCGCCCGGGCGUAUGGCAACGCAGAGCCAAGCUUCGGCGCCUGCGCCGAUGAAGGUGUAGCGACUAGACGGCACCCACCUAAGGCAAACGCUAUGGUGAAGGCAUAGUCUAGGGAGUGGCGAAAGUCACACAAACCGG [C82A A120C C169U],0.0186
12,GUGCCUUGCGCCGGGAAACCACGCAAGGGAUGGUGUCAAAUUCGGCGAAACCUAAGCGCCCGCCCGGGCGUAUGGCAACGCAGAGCCAAGCUUCGGCGCCUGCGCCGAUGAAGGUGUAGCGACUAGACGGCACCCACCUAAGGCAAACGCUAUGGUGAAGGCAUAGUCAAGGGAGUGGCGAAAGUCACACAAACCGG [C82A A120C C169A],0.0104
13,GUGCCUUGCGCCGGGAAACCACGCAAGGGAUGGUGUCAAAUUCGGCGAAACCUAAGCGCCCGCCCGGGCGUAUGGCAACGCAGAGCCAAGCUUCGGCGCCUGCGCCGAUGAAGGUGUAGCGACUAGACGGCACCCACCUAAGGCAAACGGUAUGGUGAAGGCAUAGUCUAGGGAGGGGCGAAAGUCACACAAACCGG [C82A A120C C150G C169U U176G],0.00629
14,GUGCCUUGCGCCGGGAAACCACGCAAGGGAUGGUGUCAAAUUCGGCGAAACCUAAGCGCCCGCCCGGGCGUAUGGCAACGCAGAGCCAAGCUUCGGCGCCUGCGCCGAUGAAGGUGUAGCGACUAGACGGCACCCACCUAAGGCAAACGGUAUGGUGAAGGCAUAGUCUAGGGAGCGGCGAAAGUCACACAAACCGG [C82A A120C C150G C169U U176C],0.0113
15,GUGCCUUGCGCCGGGAAACCACGCAAGGGAUGGUGUCAAAUUCGGCGAAACCUAAGCGCCCGCCCGGGCGUAUGGCAACGCAGAGCCAAGCUUCGGCGCCUGCGCCGAUGAAGGUGUAGCGACUAGACGGCACCCACCUAAGGCAAACGUUAUGGUGAAGGCAUAGUCCAGGGAGUGGCGAAAGUCACACAAACCGG [C82A A120C C150U],0.0789
16,GUGCCUUGCGCCGGGAAACCACGCAAGGGAUGGUGUCAAAUUCGGCGAAACCUAAGCGCCCGCCCGGGCGUAUGGCAACGCAGAGCCAAGCUUCGGCGCCUGCGCCGAUGAAGGUGUAGCGACUAGACGGCACCCACCUAAGGCAAACGGUAUGGUGAAGGCAUAGUCCAGGGAGGGGCGAAAGUCACACAAACCGG [C82A A120C C150G U176G],0.00347
17,GUGCCUUGCGCCGGGAAACCACGCAAGGGAUGGUGUCAAAUUCGGCGAAACCUAAGCGCCCGCCCGGGCGUAUGGCAACGCAGAGCCAAGCUUCGGCGCCUGCGCCGAUGAAGGUGUAGCGACUAGACGGCACCCACCUAAGGCAAACGGUAUGGUGAAGGCAUAGUCCAGGGAGAGGCGAAAGUCACACAAACCGG [C82A A120C C150G U176A],0.00712
18,GUGCCUUGCGCCGGGAAACCACGCAAGGGAUGGUGUCAAAUUCGGCGAAACCUAAGCGCCCGCCCGGGCGUAUGGCAACGCAGAGCCAAGCUUCGGCGCCUGCGCCGAUGAAGGUGUAGCGACUAGACGGCACCCACCUAAGGCAAACGGUAUGGUGAAGGCAUAGUCCAGGGAGCGGCGAAAGUCACACAAACCGG [C82A A120C C150G U176C],0.0106
19,GUGCCUUGCGCCGGGAAACCACGCAAGGGAUGGUGUCAAAUUCGGCGAAACCUAAGCGCCCGCCCGGGCGUAUGGCAACGCAGAGCCAAGCUUCGGCGCCUGCGCCGAUGAAGGUGUAGCGACUAGACGGCACCCACCUAAGGCAAACGUUAUGGUGAAGGCAUAGUCGAGGGAGCGGCGAAAGUCACACAAACCGG [C82A A120C C150U C169G U176C],0.0201
20,GUGCCUUGCGCCGGGAAACCACGCAAGGGAUGGUGUCAAAUUCGGCGAAACCUAAGCGCCCGCCCGGGCGUAUGGCAACGCAGAGCCAAGCUUCGGCGCCUGCGCCGAUGAAGGUGUAGCGACUAGACGGCACCCACCUAAGGCAAACGUUAUGGUGAAGGCAUAGUCGAGGGAGAGGCGAAAGUCACACAAACCGG [C82A A120C C150U C169G U176A],0.0152
21,GUGCCUUGCGCCGGGAAACCACGCAAGGGAUGGUGUCAAAUUCGGCGAAACCUAAGCGCCCGCCCGGGCGUAUGGCAACGCAGAGCCAAGCUUCGGCGCCUGCGCCGAUGAAGGUGUAGCGACUAGACGGCACCCACCUAAGGCAAACGUUAUGGUGAAGGCAUAGUCGAGGGAGGGGCGAAAGUCACACAAACCGG [C82A A120C C150U C169G U176G],0.00493
22,GUGCCUUGCGCCGGGAAACCACGCAAGGGAUGGUGUCAAAUUCGGCGAAACCUAAGCGCCCGCCCGGGCGUAUGGCAACGCAGAGCCAAGCUUCGGCGCCUGCGCCGAUGAAGGUGUAGCGACUAGACGGCACCCACCUAAGGCAAACGUUAUGGUGAAGGCAUAGUCCAGGGAGGGGCGAAAGUCACACAAACCGG [C82A A120C C150U U176G],0.0111
23,GUGCCUUGCGCCGGGAAACCACGCAAGGGAUGGUGUCAAAUUCGGCGAAACCUAAGCGCCCGCCCGGGCGUAUGGCAACGCAGAGCCAAGCUUCGGCGCCUGCGCCGAUGAAGGUGUAGCGACUAGACGGCACCCACCUAAGGCAAACGUUAUGGUGAAGGCAUAGUCCAGGGAGCGGCGAAAGUCACACAAACCGG [C82A A120C C150U U176C],0.0394
24,GUGCCUUGCGCCGGGAAACCACGCAAGGGAUGGUGUCAAAUUCGGCGAAACCUAAGCGCCCGCCCGGGCGUAUGGCAACGCAGAGCCAAGCUUCGGCGCCUGCGCCGAUGAAGGUGUAGCGACUAGACGGCACCCACCUAAGGCAAACGUUAUGGUGAAGGCAUAGUCCAGGGAGAGGCGAAAGUCACACAAACCGG [C82A A120C C150U U176A],0.0246
25,GUGCCUUGCGCCGGGAAACCACGCAAGGGAUGGUGUCAAAUUCGGCGAAACCUAAGCGCCCGCCCGGGCGUAUGGCAACGCAGAGCCAAGCUUCGGCGCCUGCGCCGAUGAAGGUGUAGCGACUAGACGGCACCCACCUAAGGCAAACGUUAUGGUGAAGGCAUAGUCAAGGGAGGGGCGAAAGUCACACAAACCGG [C82A A120C C150U C169A U176G],0.00673
26,GUGCCUUGCGCCGGGAAACCACGCAAGGGAUGGUGUCAAAUUCGGCGAAACCUAAGCGCCCGCCCGGGCGUAUGGCAACGCAGAGCCAAGCUUCGGCGCCUGCGCCGAUGAAGGUGUAGCGACUAGACGGCACCCACCUAAGGCAAACGUUAUGGUGAAGGCAUAGUCAAGGGAGCGGCGAAAGUCACACAAACCGG [C82A A120C C150U C169A U176C],0.0165
27,GUGCCUUGCGCCGGGAAACCACGCAAGGGAUGGUGUCAAAUUCGGCGAAACCUAAGCGCCCGCCCGGGCGUAUGGCAACGCAGAGCCAAGCUUCGGCGCCUGCGCCGAUGAAGGUGUAGCGACUAGACGGCACCCACCUAAGGCAAACGUUAUGGUGAAGGCAUAGUCAAGGGAGAGGCGAAAGUCACACAAACCGG [C82A A120C C150U C169A U176A],0.0201
28,GUGCCUUGCGCCGGGAAACCACGCAAGGGAUGGUGUCAAAUUCGGCGAAACCUAAGCGCCCGCCCGGGCGUAUGGCAACGCAGAGCCAAGCUUCGGCGCCUGCGCCGAUGAAGGUGUAGCGACUAGACGGCACCCACCUAAGGCAAACGCUAUGGUGAAGGCAUAGUCAAGGGAGCGGCGAAAGUCACACAAACCGG [C82A A120C C169A U176C],0.0229
29,GUGCCUUGCGCCGGGAAACCACGCAAGGGAUGGUGUCAAAUUCGGCGAAACCUAAGCGCCCGCCCGGGCGUAUGGCAACGCAGAGCCAAGCUUCGGCGCCUGCGCCGAUGAAGGUGUAGCGACUAGACGGCACCCACCUAAGGCAAACGCUAUGGUGAAGGCAUAGUCAAGGGAGAGGCGAAAGUCACACAAACCGG [C82A A120C C169A U176A],0.0198
30,GUGCCUUGCGCCGGGAAACCACGCAAGGGAUGGUGUCAAAUUCGGCGAAACCUAAGCGCCCGCCCGGGCGUAUGGCAACGCAGAGCCAAGCUUCGGCGCCUGCGCCGAUGAAGGUGUAGCGACUAGACGGCACCCACCUAAGGCAAACGCUAUGGUGAAGGCAUAGUCAAGGGAGGGGCGAAAGUCACACAAACCGG [C82A A120C C169A U176G],0.00458

# Reference: the RNAGym collection of RNA variant scans (doi:10.1093/molbev/msab373)
